Source: US20210388087A1

B1: H183/L072 with K50Y (Kabat) in VL dBBDu072L (antibody, name in Kabat numbering, V domains shown)
VH: QVQLVESGGGLVQPGRSLRLSCAASGFTFSNAWMHWVRQAPGKGLEWVAQIKDKGNAYAAYYAPSVKGRFTISRDDSKNSIYLQMNSLKTEDTAVYYCHYVHYASASTVLPAFGVDAWGQGTTVTVSS
VL: DIVMTQSPLSLPVTPGEPASISCQASQELVHMNRNTYLHWYQQKPGQAPRLLIYYVSNRFPGVPDRFSGSGSGTDFTLKISRVEAEDVGVYYCAQGTSVPFTFGQGTKLEIK
B2: H183/L072 with P95Y (Kabat) in VL dBBDu072L (antibody, name in Kabat numbering, V domains shown)
VH: QVQLVESGGGLVQPGRSLRLSCAASGFTFSNAWMHWVRQAPGKGLEWVAQIKDKGNAYAAYYAPSVKGRFTISRDDSKNSIYLQMNSLKTEDTAVYYCHYVHYASASTVLPAFGVDAWGQGTTVTVSS
VL: DIVMTQSPLSLPVTPGEPASISCQASQELVHMNRNTYLHWYQQKPGQAPRLLIYKVSNRFPGVPDRFSGSGSGTDFTLKISRVEAEDVGVYYCAQGTSVYFTFGQGTKLEIK
B3: GPC3/Ctrl × CD3 trispecific antibody (antibody, part only; not given: control Fv, constant regions, Fc, V domains shown, not shown: another chain or arm of the molecule; a dimerising Fc or GST; large carriers; small tags and cut ends)
VH 1: QVQLVESGGGLVQPGRSLRLSCAASGFTFSNAWMHWVRQAPGKGLEWVAQIKDRANSYNTYYAESVKGRFTISRDDSKNSIYLQMNSLKTEDTAVYYCRYVHYTTYAGSSFSYGVDAWGQGTTVTVSS
VL 1: DIVMTQSPLSLPVTPGEPASISCRSSQPLVHSNRNTYLHWYQQKPGQAPRLLIYKVSNRFSGVPDRFSGSGSGTDFTLKISRVEAEDVGVYYCGQGTQVPYTFGQGTKLEIK
VH 2: QVQLVQSGAEVKKPGASVTVSCKASGYTFTDYEMHWIRQPPGEGLEWIGAIDGPTPDTAYSEKFKGRVTLTADKSTSTAYMELSSLTSEDTAVYYCTRFYSYTYWGQGTLVTVSS
VL 2: DIVMTQSPLSLPVTPGEPASISCRSSQPLVHSNRNTYLHWYQQKPGQAPRLLIYKVSNRFSGVPDRFSGSGSGTDFTLKISRVEAEDVGVYYCGQGTQVPYTFGQGTKLEIK
B4: H183/L072 with Q90Y (Kabat) in VL dBBDu072L (antibody, name in Kabat numbering, V domains shown)
VH: QVQLVESGGGLVQPGRSLRLSCAASGFTFSNAWMHWVRQAPGKGLEWVAQIKDKGNAYAAYYAPSVKGRFTISRDDSKNSIYLQMNSLKTEDTAVYYCHYVHYASASTVLPAFGVDAWGQGTTVTVSS
VL: DIVMTQSPLSLPVTPGEPASISCQASQELVHMNRNTYLHWYQQKPGQAPRLLIYKVSNRFPGVPDRFSGSGSGTDFTLKISRVEAEDVGVYYCAYGTSVPFTFGQGTKLEIK
B5: H183/L072 with V51Y (Kabat) in VL dBBDu072L (antibody, name in Kabat numbering, V domains shown)
VH: QVQLVESGGGLVQPGRSLRLSCAASGFTFSNAWMHWVRQAPGKGLEWVAQIKDKGNAYAAYYAPSVKGRFTISRDDSKNSIYLQMNSLKTEDTAVYYCHYVHYASASTVLPAFGVDAWGQGTTVTVSS
VL: DIVMTQSPLSLPVTPGEPASISCQASQELVHMNRNTYLHWYQQKPGQAPRLLIYKYSNRFPGVPDRFSGSGSGTDFTLKISRVEAEDVGVYYCAQGTSVPFTFGQGTKLEIK
B6: H183/L072 with G91Y (Kabat) in VL dBBDu072L (antibody, name in Kabat numbering, V domains shown)
VH: QVQLVESGGGLVQPGRSLRLSCAASGFTFSNAWMHWVRQAPGKGLEWVAQIKDKGNAYAAYYAPSVKGRFTISRDDSKNSIYLQMNSLKTEDTAVYYCHYVHYASASTVLPAFGVDAWGQGTTVTVSS
VL: DIVMTQSPLSLPVTPGEPASISCQASQELVHMNRNTYLHWYQQKPGQAPRLLIYKVSNRFPGVPDRFSGSGSGTDFTLKISRVEAEDVGVYYCAQYTSVPFTFGQGTKLEIK
B7: H183/L072 with T92Y (Kabat) in VL dBBDu072L (antibody, name in Kabat numbering, V domains shown)
VH: QVQLVESGGGLVQPGRSLRLSCAASGFTFSNAWMHWVRQAPGKGLEWVAQIKDKGNAYAAYYAPSVKGRFTISRDDSKNSIYLQMNSLKTEDTAVYYCHYVHYASASTVLPAFGVDAWGQGTTVTVSS
VL: DIVMTQSPLSLPVTPGEPASISCQASQELVHMNRNTYLHWYQQKPGQAPRLLIYKVSNRFPGVPDRFSGSGSGTDFTLKISRVEAEDVGVYYCAQGYSVPFTFGQGTKLEIK

Assays:
[1] = biological target: Human CD3eg linker (human); assay: affinity relative to template H183/L072, single-mutation scan
Human CD3eg linker (human), sequence (chain, as listed by the source limits assumed): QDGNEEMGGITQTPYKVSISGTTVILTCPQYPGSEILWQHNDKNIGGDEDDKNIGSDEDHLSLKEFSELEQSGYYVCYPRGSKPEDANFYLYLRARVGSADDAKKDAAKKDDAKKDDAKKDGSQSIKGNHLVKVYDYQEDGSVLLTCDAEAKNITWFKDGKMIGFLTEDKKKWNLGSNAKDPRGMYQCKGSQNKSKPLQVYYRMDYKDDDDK

[2] = biological target: Human CD3eg linker (human); assay: SPR (Biacore T200), 37 degrees C, antibody captured by anti-human Fc on CM4 chip, recombinant human CD3 as analyte, 1:1 model

| Binder | fold change of affinity for CD3 [1] [fold] | also measured |
| --- | --- | --- |
| B1 | 0 | – |
| B2 | 0 | – |
| B3 | – | Kd [2]: 17.8 nM; koff [2]: 0.00151 s⁻¹; kon [2]: 85000 M⁻¹ s⁻¹ |
| B4 | 0 | – |
| B5 | 0 | – |
| B6 | 0 | – |
| B7 | 0 | – |
